Experimental data reported in the supplement of paper PMC10126150.
± gives the standard deviation of the averaged measurements.

System: ATP
Test: switch fluorescence ratio, 500 uM ATP over buffer (Cy3 cluster intensity, sum of 5 cycles each) (fold (ratio)); higher = stronger signal-on switching upon ATP binding; sequences stand for … in TCGTCGGCAGCGTCAGATGTGTATAAGAGACAGTTTTTTTTTTTTTTTTTTTTTTTTT…TC
Settings: aptamer strand: ATP DNA aptamer (quencher-CACCTGGGGGAGTATTGCGGAGGAAGG + anchor), 100 nM annealed; ATP concentration: 500 uM
How it was run: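 Cy3-labelled switching-strand clusters on a modified Illumina MiSeq flow-cell were annealed to 100 nM quencher-labelled ATP aptamer and imaged first in selection buffer, then after 15 min with 500 uM ATP at 22 °C. NaOH stripping and re-annealing separated each of five buffer/ATP cycles, and clusters outside 100-1000 RFU were excluded. The fluorescence ratio sums target-cycle Cy3 intensity over buffer-cycle Cy3 intensity per cluster and averages it per switch-domain sequence.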
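Note: ATP exposure 15 min at 22 °C before imaging.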

Point of comparison: TCGGTGGTGG, switch fluorescence ratio 0.997 ± 0.019. Against it:
- TTTGAGTTGG — within error, 1 ± 0.02
- GTTATGGGGT — within error, 1.01 ± 0.04
- TAGGGGAGCA — within error, 1.01 ± 0.044
- GTTTTCGCCG — within error, 1.03 ± 0.11
- TTTTGACGTG — within error, 0.991 ± 0.013
- AAAGCTGGAG — within error, 1.03 ± 0.021
- TTTGGTCAGA — within error, 0.973 ± 0.049
- GGTATAATGG — within error, 0.971 ± 0.03
- GCTCGTATTA — within error, 1 ± 0.016
- TTACAGTCGT — within error, 1.03 ± 0.022
- TTATGCATGT — within error, 1.02 ± 0.038
- ATCACAACTG — the same, 0.997 ± 0.15
- TGATAAGAGT — within error, 1.01 ± 0.011
- TGGGGGTGGG — within error, 1.02 ± 0.044
- TAAAAGACTG — within error, 0.992 ± 0.094
- GGAAGGAATG — lower, 0.966 ± 0.0076
- ACTTATCGGG — within error, 1 ± 0.029
- GTGGATTTGA — within error, 1.01 ± 0.013
- TTCAATAGAA — within error, 0.998 ± 0.0029
- AGGCTAGCGG — within error, 1.01 ± 0.019
- ACCAGGTGGG — higher, 2.75 ± 0.75
- ATAGATGGTG — within error, 0.987 ± 0.025
- CGGTATACTG — within error, 1.04 ± 0.049
- GGGTAACCGA — within error, 0.9832 ± 0.0019
- AAGATTCGCG — within error, 0.9914 ± 0.0014
- ATAGACGGTT — within error, 1.02 ± 0.048
- GCTACATGGG — within error, 1.02 ± 0.015
- AGTTACGAAA — higher, 1.11 ± 0.025
- ATTTTCACC — within error, 1.0095 ± 0.00081
- GAGAAGCTAT — within error, 0.987 ± 0.015
- CTTTTTTATT — within error, 1.01 ± 0.0085
- CATTATTAAA — within error, 0.976 ± 0.025
- CAGCGCCGGG — within error, 0.994 ± 0.017
- TTTTGTTAGC — within error, 1.01 ± 0.03
- TTCTCACGTC — within error, 1.01 ± 0.082
- TTTTTTGTT — within error, 0.977 ± 0.034
- ATTAAAACTT — higher, 1.05 ± 0.026
- ATGGGCCGGG — within error, 0.9955 ± 0.0074
- GGTGGGGATT — within error, 1.07 ± 0.17
- TGTGGGAAAT — within error, 0.988 ± 0.016
- GCAAAATTTC — within error, 1.02 ± 0.085
- CTAATTTTTT — within error, 1.01 ± 0.025
- GTCGTCGGCG — within error, 1.02 ± 0.025
- TGCTAGCATT — within error, 1.11 ± 0.15
- TACTTAGCCC — higher, 1.07 ± 0.022
- AAATTTTGGG — within error, 1 ± 0.019
- GGTGAAGGTA — lower, 0.929 ± 0.045
- AACGGAGAGC — higher, 1.034 ± 0.01
- CGGGTCGGGG — within error, 0.998 ± 0.025
- AGGCGGGCGT — lower, 0.9623 ± 0.0022
- GAGAAGTTAG — within error, 1.02 ± 0.023
- AATTATTTTT — within error, 0.9867 ± 0.0061
- ATCGTTTAAT — lower, 0.9671 ± 0.003
- TTGGTGGTTC — within error, 0.99 ± 0.037
- TGAATTTTTA — within error, 1 ± 0.011
- TCTTTAAAGA — within error, 0.9785 ± 0.0083
- AATCAGGGTA — within error, 1.01 ± 0.04
- CAGTCTTTTT — within error, 1.03 ± 0.022
- TGTTTTGTTG — within error, 0.99 ± 0.016
- GCAGGAAAAC — higher, 1.04 ± 0.018
- TTCAAGGTCA — within error, 1.02 ± 0.028
- TCTAAGGGGG — within error, 1.015 ± 0.0074
- TTCGGGGTTG — lower, 0.96 ± 0.015
- AGTCCTTTGT — within error, 1.02 ± 0.025
- TTACGGAGGG — within error, 1.02 ± 0.038
- CATTTTGGGC — within error, 0.992 ± 0.041
- CCATTACGTT — within error, 1.04 ± 0.05
- TAAGATGTAT — within error, 0.968 ± 0.031
- AGTTAACTTT — within error, 1.02 ± 0.028
- GATTGAATAT — within error, 0.983 ± 0.032
- CCAATAGGCA — higher, 1.046 ± 0.0078
- GTACCTAACT — higher, 1.2 ± 0.025
- AGGGGCGGGG — within error, 0.995 ± 0.029
- CATGCGTAAA — higher, 1.238 ± 0.0069
- TAATCCGCGG — higher, 1.14 ± 0.041
- AAAGGGAGGT — within error, 1.03 ± 0.041
- TGGGATGTTA — within error, 0.9872 ± 0.0074
- ATTCATGTTG — within error, 0.996 ± 0.014
- TTTTGATTGT — within error, 1.01 ± 0.055
- TGTGTAGTTG — within error, 0.9821 ± 0.0042
- TAGACTGGGG — within error, 0.966 ± 0.11
- GGGTTGGGAA — within error, 0.988 ± 0.023
- GTTTACGTTC — within error, 1.02 ± 0.049
- ACGGATGTTG — within error, 1.01 ± 0.059
- GCTGCGAGGT — within error, 1.012 ± 0.0056
- GGCTATAATA — within error, 1.01 ± 0.034
- GCAGTGTGCG — within error, 0.985 ± 0.025
- GCGCAGTGGC — higher, 1.23 ± 0.058
- CCGCCACCTG — higher, 1.56 ± 0.059
- CTCTTGGGGC — within error, 0.987 ± 0.041
- AATTTAGGAG — within error, 1.01 ± 0.051
- GAGGGATAGC — within error, 0.991 ± 0.025
- AGGTCTTTCG — within error, 1.002 ± 0.003
- TTTCATACGT — within error, 1.02 ± 0.05
- CTATAGGTAA — within error, 0.996 ± 0.019
- CCTGGGTCGA — within error, 1.022 ± 0.0044
- CCGGTACTTT — higher, 1.05 ± 0.016
- CCGGCTTAGA — within error, 1.14 ± 0.2
- TTTATTTGCA — lower, 0.9545 ± 0.0068
- ACGTAATTGT — higher, 1.13 ± 0.061
- TTTTTATCTT — within error, 1.03 ± 0.046
- CAGAGGAAGT — within error, 1.02 ± 0.04
- TGGGGATCGG — within error, 0.973 ± 0.025
- TTGTTTTTTA — within error, 1.01 ± 0.016
- AAACGGGGAC — within error, 1.07 ± 0.15
- TTTTAGCCAG — within error, 1.01 ± 0.032
- TAATTTTTAA — within error, 0.99 ± 0.029
- TAGGGGTAGG — within error, 1.02 ± 0.021
- GTTTTAACTT — within error, 0.999 ± 0.054
- ATGTGTACCC — higher, 1.04 ± 0.016
- TGGTGGTTGC — within error, 0.96 ± 0.051
- TTTTGGTGCG — within error, 0.986 ± 0.041
- ATAAGGTAG — within error, 1.004 ± 0.0026
- AGCTTTAGAC — higher, 1.09 ± 0.021
- ATTTTTAGGC — within error, 1.11 ± 0.11
- TCAGGGGTGG — within error, 1 ± 0.058
- TTGCTATTCG — within error, 0.992 ± 0.05
- CGAATAGGCG — within error, 0.976 ± 0.048
- TATTATTGGT — within error, 0.992 ± 0.045
- TATCAGGGG — higher, 1.11 ± 0.054
- CAGTGATTTA — within error, 0.981 ± 0.019
- GCGTTTTTCG — within error, 0.977 ± 0.042
- GCTGTAGCGG — within error, 1.02 ± 0.031
- TTTTTTAAAA — within error, 0.995 ± 0.03
- GTGTACGGGG — within error, 0.971 ± 0.026
- TAGCAGTGGG — within error, 0.973 ± 0.015
- CAGTCCCACG — within error, 1.021 ± 0.0053
- TCAAGACGCA — higher, 1.068 ± 0.0035
- GAGAGTAGAG — within error, 0.992 ± 0.034
- TATTATTTGT — within error, 0.994 ± 0.053
- TACTCGAGTT — within error, 0.977 ± 0.015
- GTCGCATGAG — within error, 1.03 ± 0.05
- TTTTGTGAAT — lower, 0.9561 ± 0.0045
- TTTAACCGGT — higher, 1.047 ± 0.0073
- AGTTGGTATT — within error, 0.998 ± 0.015
- ATGGGGCATA — within error, 1.01 ± 0.045
- TGCACTGGGA — within error, 1.04 ± 0.034
- TGGGAGTTTT — within error, 1.02 ± 0.047
- ATGGGACAGT — within error, 0.988 ± 0.05
- TCTATTGGA — within error, 0.9949 ± 0.0037
- TATACTCCTG — higher, 1.16 ± 0.041
- TATTTGCTTT — within error, 1.02 ± 0.015
- ATTATTTGGT — within error, 1.01 ± 0.014
- TGGTCCGGGG — within error, 1.01 ± 0.087
- TCGTAGAATA — within error, 1.01 ± 0.032
- GCGGGGTAGG — within error, 1.015 ± 0.0099
- CATTGCGATC — higher, 2.08 ± 0.3
- AAAAAAAATG — within error, 0.9991 ± 0.0042
- TATCATGGGG — within error, 0.996 ± 0.031
- TTTTTGAAAG — within error, 0.996 ± 0.013
- ATTCCTCGAC — higher, 1.67 ± 0.11
- AATCTGGGTG — higher, 1.11 ± 0.034
- TTTGTGGGGA — within error, 1 ± 0.026
- TAATAGTTCT — within error, 1.01 ± 0.026
- GCCTTAGAGT — within error, 1.03 ± 0.051
- ATGGGGGGTT — within error, 1.01 ± 0.043
- GGTGCTACAC — within error, 1.04 ± 0.025
- CTTCTTAAGA — within error, 0.984 ± 0.046
- CGCTTATAGG — within error, 1.03 ± 0.052
- TACGATGAGT — within error, 0.996 ± 0.02
- GGAACCTTTT — within error, 1.04 ± 0.041
- ATGGTATATT — within error, 1 ± 0.033
- GGAATCCGGG — within error, 0.987 ± 0.037
- GACTTGGTGC — higher, 1.06 ± 0.023
- ATTCTGACCG — higher, 1.09 ± 0.068
- TAAAAATATG — within error, 0.9907 ± 0.0013
- TTTTGGTCTC — within error, 0.985 ± 0.036
- GTGGGAGGGG — within error, 1 ± 0.015
- AATTCTATAG — within error, 0.995 ± 0.033
- ATTGTTAATT — within error, 1.013 ± 0.01
- TGTTCGTCGT — lower, 0.9693 ± 0.0039
- GATTTAGGGA — within error, 0.995 ± 0.039
- AAGGGACAGT — within error, 1.03 ± 0.016
- GTTGACCGGC — within error, 0.996 ± 0.011
- TGGGGTTGTT — within error, 0.985 ± 0.033
- AACGGCAGGG — within error, 1 ± 0.024
- AGCTCATGTG — within error, 0.988 ± 0.026
- AGGCGGGTGA — within error, 1.02 ± 0.013
- AGGCGCGGGT — within error, 0.998 ± 0.069
- CAAGGTGGTC — within error, 0.995 ± 0.029
- CCGGGTGAAG — within error, 1.07 ± 0.063
- TCACGCTTCA — higher, 1.12 ± 0.033
- TTTGGGTAAT — within error, 1.21 ± 0.39
- CGTTTGTGAG — within error, 1 ± 0.0092
- ACGTGCTCGT — within error, 0.991 ± 0.041
- AAGTCGGGTG — higher, 1.08 ± 0.024
- GATATGAGCG — within error, 1.002 ± 0.0018
- ATTATTAGTC — within error, 1.01 ± 0.022
- TAGCTTGGTG — higher, 1.04 ± 0.015
- CAGTTAAAAA — higher, 1.03 ± 0.012
- ATGTGAGAGG — within error, 0.991 ± 0.022
- GAACGGAGGC — within error, 0.978 ± 0.016
- GCGGGGTTGC — within error, 1.03 ± 0.033
- AACTCTAGCA — higher, 1.073 ± 0.0052
- CGGTACACGT — higher, 1.0186 ± 0.00031
- TTGTTTCCGA — within error, 1 ± 0.058
- CTAAATAGGG — within error, 1.01 ± 0.049
- GGGGTGGGCT — within error, 0.956 ± 0.031
- TGGGCGGGGA — within error, 1.03 ± 0.048
